Data on 8 molecules can be found in patent publication US20250243289A1 (PROMETHEUS BIOSCIENCES, published 2025).

Numbering of substitutions follows the chain as printed. Names may count otherwise. “And” between values parts separate entries of the source, which are not always exact repeats. Equal values may be shown once.

Test [1] has as its target T1, recombinant cynomolgus monkey TL1A protein (cynomolgus monkey, UniProt G7PRK8 72-251).
T1 sequence: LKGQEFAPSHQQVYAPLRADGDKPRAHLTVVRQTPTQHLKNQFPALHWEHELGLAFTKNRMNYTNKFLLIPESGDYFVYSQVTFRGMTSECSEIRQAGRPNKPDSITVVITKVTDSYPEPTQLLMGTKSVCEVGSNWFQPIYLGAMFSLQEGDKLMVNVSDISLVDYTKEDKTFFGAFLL
In words: cell-based or functional assay.

In test [2] the target is T2, recombinant human TL1A protein (tumor necrosis factor-like cytokine 1A) (human, UniProt O95150 72-251).
T2 sequence (looked up): T1 sequence with L39F, V78I
Put plainly: cell-based or functional assay.

Test [3] addresses monkey TL1A in the in vitro monkey whole blood IFN-γ assay (monkey). In words: cell-based or functional assay.
The target in test [4] is T3, human TL1A, endogenous in human whole blood (human, UniProt O95150 72-251, limits assumed).
T3 sequence (looked up): T1 sequence with L39F, V78I
Put plainly: cell-based or functional assay.

Another test concerns the target T4, recombinant TL1A antigen (UniProt O95150 72-251, limits assumed).
T4 sequence (looked up): T1 sequence with L39F, V78I
In words: ELISA titration against recombinant TL1A antigen. (An ELISA detects its analyte on a solid surface through an enzyme-linked reagent.)

B1: anti-TL1A antibody A219 (antibody, V domains shown)
VH: QVQLVQSGAEVKKPGASVKVSCKASGFDIQDTYMHWVKQRPGQGLEWMGRIDPASGHTKYDPKFQVRVTITRDTSTSTVYLELSSLRSEDTAVYYCARSGGLPDVWGQGTTVTVSS
VL: EIVLTQSPGTLSLSPGERATLSCRASSSVSYMYWYQQKPGQAPRPLIYATSNLASGIPDRFSGSGSGTDFTLTISRLEPEDFAVYYCQQWEGNPRTFGGGTKLEIK
With B1, in test [1], the “inhibition of monkey TL1A-induced caspase activation in TF-1 cells (IC50)” value is 0.59 nM; the “inhibition of the IFN-γ response in monkey whole blood stimulated with immune complex, IL-12 and IL-18 (mean IC50)” value was 1.54 nM and 289 ng/ml. In test [2], the “inhibition of human TL1A-induced caspase activation in TF-1 cells (IC50)” value was determined as 0.27 nM. Also, the “IC50 of the in vitro monkey whole blood IFN-γ release assay” value in test [3] was 1.54 nM and 289 ng/mL.

B2: A147 (antibody, human IgG1, V domains shown)
VH: B1 VH with D52E, T58I, V66G, I70M, L81M, V105W
VL: B1 VL
As usually defined, the % Inhibition is the change of the read-out against control, counted positive when it falls. For the molecule B2, in test [4], the “% Inhibition at 1 nM Ig (interferon gamma release in human blood)” value (from here on “% Inhibition at 1 nM Ig”) was determined as 51.3% and the “% Inhibition at 10 nM Ig (interferon gamma release in human blood)” value (shortened to “% Inhibition at 10 nM Ig”) was 72.4%.

B3: A217 (antibody, human IgG1, V domains shown)
VH: B1 VH with L81M
VL: B1 VL
In the case of B3, in test [4], the “% Inhibition at 1 nM Ig” value came to 46% and the “% Inhibition at 10 nM Ig” value was determined as 72.2%.

B4: A219 (antibody, V domains shown)
VH: B1 VH
VL: B1 VL
On to B4, for which, in test [4], the “% Inhibition at 1 nM Ig” value was found to be 59.8% and the “% Inhibition at 10 nM Ig” value stood at 75.2%.

B5: A213 (antibody, human IgG1, V domains shown)
VH: B1 VH with K38R, R72T, L81M
VL: B1 VL
As to B5, in test [4], the “% Inhibition at 1 nM Ig” value worked out at 48.6% and the “% Inhibition at 10 nM Ig” value was found to be 69.8%.

B6: A220 (antibody, human IgG1, V domains shown)
VH: B1 VH with I70M, V79A
VL: B1 VL with L46W
B6: in test [4], the “% Inhibition at 1 nM Ig” value turned out to be 36.9% and the “% Inhibition at 10 nM Ig” value stood at 63.2%.

B7: A212 (antibody, human IgG1, V domains shown)
VH: B1 VH with K38R, M48I, V68A, R72T, V79A
VL: B1 VL
Turning to B7, in test [4], the “% Inhibition at 1 nM Ig” value was 46.8% and the “% Inhibition at 10 nM Ig” value came out at 71.2%.

B8: anti-TL1A antibody with heavy chain SEQ ID NO: 379 (S228P, L235E) and light chain SEQ ID NO: 381 (antibody, human IgG4 S228P, kappa)
heavy: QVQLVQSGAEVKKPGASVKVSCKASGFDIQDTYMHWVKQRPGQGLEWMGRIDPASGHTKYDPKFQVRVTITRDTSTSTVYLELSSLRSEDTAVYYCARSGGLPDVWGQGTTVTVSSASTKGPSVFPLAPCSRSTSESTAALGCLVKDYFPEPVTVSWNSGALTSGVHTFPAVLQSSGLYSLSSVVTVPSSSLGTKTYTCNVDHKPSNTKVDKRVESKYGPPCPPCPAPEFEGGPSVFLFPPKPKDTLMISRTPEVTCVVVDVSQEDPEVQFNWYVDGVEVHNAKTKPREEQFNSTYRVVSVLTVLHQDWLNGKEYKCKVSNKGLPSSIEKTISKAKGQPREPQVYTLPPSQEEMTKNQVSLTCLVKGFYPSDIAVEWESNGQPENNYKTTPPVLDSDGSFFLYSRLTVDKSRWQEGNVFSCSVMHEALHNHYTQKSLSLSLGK
light: EIVLTQSPGTLSLSPGERATLSCRASSSVSYMYWYQQKPGQAPRPLIYATSNLASGIPDRFSGSGSGTDFTLTISRLEPEDFAVYYCQQWEGNPRTFGGGTKLEIKRTVAAPSVFIFPPSDEQLKSGTASVVCLLNNFYPREAKVQWKVDNALQSGNSQESVTEQDSKDSTYSLSSTLTLSKADYEKHKVYACEVTHQGLSSPVTKSFNRGEC
notes: IgG4
The term EC50 denotes the concentration that produces a half-maximal response. On to B8, for which the EC50 with recombinant TL1A antigen came to 0.324 nM.
